Test [1] has as its target Muc1 mucin bearing the CA6 sialoglycotope (DS6 antigen), as expressed by CA6-positive human tumour cell lines (human) (UniProt P15941). Briefly: flow cytometry on HeLa cells.
Test [2] has the same target. The experiment in a line: flow cytometry on CaOV3 cells. (Flow cytometry measures light scatter and fluorescence of single cells or particles in a stream.)
The target is the same in test [3]. Briefly: flow cytometry on MCF7 cells.
For test [4] the target is unchanged. Briefly: flow cytometry on KB cells.
Test [5] has the same target. The experiment in a line: flow cytometry on BT549 cells.

In the case of CM1 antibody (Muc1 VNTR antibody), the MMF (maximum mean relative fluorescence) (relative fluorescence) was 335 in test [1]; 1030 in test [2]; 1020 in test [3]; 338 in test [4]; 188 in test [5].
